Source: PMC2871031 (Structure (London, England : 1993), 2010)
“And” between values parts separate entries of the source, which are not always exact repeats. Identical values can stand only once.

What was measured:
[1] = molecular target: ClpA (wild type), ATPγS-assembled hexamer (E. coli) (UniProt P0ABH9)
[2] = molecular target: ClpA-Δ15 (linker deletion mutant, residues 145 to 159 deleted) (E. coli) (UniProt P0ABH9)
[3] = molecular target: ClpA-Δ10 (linker deletion mutant, residues 145 to 154 deleted) (E. coli) (UniProt P0ABH9)
[4] = molecular target: ClpA-Δ153 (N-domain-deleted form of ClpA) (E. coli) (UniProt P0ABH9)
[5] = molecular target: T1, ClpP peptidase (tetradecamer) (UniProt P0A6G7 15-207); test: cryo-EM structure
T1 sequence (P0A6G7 15-207): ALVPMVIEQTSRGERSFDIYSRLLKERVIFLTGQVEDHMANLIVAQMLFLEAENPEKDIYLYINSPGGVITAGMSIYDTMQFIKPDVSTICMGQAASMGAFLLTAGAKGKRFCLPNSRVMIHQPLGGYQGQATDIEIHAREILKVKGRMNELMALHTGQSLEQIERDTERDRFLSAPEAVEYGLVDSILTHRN

cryo-EM structure = molecular target: the molecule itself; test: cryo-EM structure
[6] = molecular target: T1, ClpP peptidase (tetradecamer); test: cryo-electron microscopy with 2D averaging and variance maps of side-views
[7] = molecular target: the molecule itself; test: as above

**Q.** α-casein (natural protein) was tested. Which Km of α-casein degradation, 37 °C (μM protein monomer) [1] did it give?
**A.** The Km of α-casein degradation, 37 °C (μM protein monomer) was 0.2.

**Q.** What about the Km of α-casein degradation, 37 °C (μM protein monomer) [2] of the same molecule?
**A.** The Km of α-casein degradation, 37 °C (μM protein monomer) was 0.35.

**Q.** What does the source list for GFP-SsrA?
**A.** Km of GFP-SsrA degradation, 37 °C (μM protein monomer) [1]: 1.7; Km of GFP-SsrA degradation, 37 °C (μM protein monomer) [3]: 1.7; Km of GFP-SsrA degradation, 37 °C (μM protein monomer) [2]: 1.5; Km of GFP-SsrA degradation, 37 °C (μM protein monomer) [4]: 1

B1: ClpA (wild type), ATPγS-assembled hexamer (enzyme, E. coli, UniProt P0ABH9 1-758, looked up)
chain: MLNQELELSLNMAFARAREHRHEFMTVEHLLLALLSNPSAREALEACSVDLVALRQELEAFIEQTTPVLPASEEERDTQPTLSFQRVLQRAVFHVQSSGRNEVTGANVLVAIFSEQESQAAYLLRKHEVSRLDVVNFISHGTRKDEPTQSSDPGSQPNSEEQAGGEERMENFTTNLNQLARVGGIDPLIGREKELERAIQVLCRRRKNNPLLVGESGVGKTAIAEGLAWRIVQGDVPEVMADCTIYSLDIGSLLAGTKYRGDFEKRFKALLKQLEQDTNSILFIDEIHTIIGAGAASGGQVDAANLIKPLLSSGKIRVIGSTTYQEFSNIFEKDRALARRFQKIDITEPSIEETVQIINGLKPKYEAHHDVRYTAKAVRAAVELAVKYINDRHLPDKAIDVIDEAGARARLMPVSKRKKTVNVADIESVVARIARIPEKSVSQSDRDTLKNLGDRLKMLVFGQDKAIEALTEAIKMARAGLGHEHKPVGSFLFAGPTGVGKTEVTVQLSKALGIELLRFDMSEYMERHTVSRLIGAPPGYVGFDQGGLLTDAVIKHPHAVLLLDEIEKAHPDVFNILLQVMDNGTLTDNNGRKADFRNVVLVMTTNAGVRETERKSIGLIHQDNSTDAMEEIKKIFTPEFRNRLDNIIWFDHLSTDVIHQVVDKFIVELQVQLDQKGVSLEVSQEARNWLAEKGYDRAMGARPMARVIQDNLKKPLANELLFGSLVDGGQVTVALDKEKNELTYGFQSAQKHKAEAAH
**Q.** B1 was tested. Which “stoichiometry N” value [5] did it give?
**A.** The value was 1 ClpA hexamers per ClpP tetradecamer.

**Q.** What about the “stoichiometry N” value (cryo-EM structure) of the same molecule?
**A.** The value was 6 subunits.

B2: ClpA-Δ10 (linker deletion mutant, residues 145 to 154 deleted) (enzyme, E. coli, UniProt P0ABH9 1-758, looked up)
chain: MLNQELELSLNMAFARAREHRHEFMTVEHLLLALLSNPSAREALEACSVDLVALRQELEAFIEQTTPVLPASEEERDTQPTLSFQRVLQRAVFHVQSSGRNEVTGANVLVAIFSEQESQAAYLLRKHEVSRLDVVNFISHGTRKSQPNSEEQAGGEERMENFTTNLNQLARVGGIDPLIGREKELERAIQVLCRRRKNNPLLVGESGVGKTAIAEGLAWRIVQGDVPEVMADCTIYSLDIGSLLAGTKYRGDFEKRFKALLKQLEQDTNSILFIDEIHTIIGAGAASGGQVDAANLIKPLLSSGKIRVIGSTTYQEFSNIFEKDRALARRFQKIDITEPSIEETVQIINGLKPKYEAHHDVRYTAKAVRAAVELAVKYINDRHLPDKAIDVIDEAGARARLMPVSKRKKTVNVADIESVVARIARIPEKSVSQSDRDTLKNLGDRLKMLVFGQDKAIEALTEAIKMARAGLGHEHKPVGSFLFAGPTGVGKTEVTVQLSKALGIELLRFDMSEYMERHTVSRLIGAPPGYVGFDQGGLLTDAVIKHPHAVLLLDEIEKAHPDVFNILLQVMDNGTLTDNNGRKADFRNVVLVMTTNAGVRETERKSIGLIHQDNSTDAMEEIKKIFTPEFRNRLDNIIWFDHLSTDVIHQVVDKFIVELQVQLDQKGVSLEVSQEARNWLAEKGYDRAMGARPMARVIQDNLKKPLANELLFGSLVDGGQVTVALDKEKNELTYGFQSAQKHKAEAAH
**Q.** With B2 as the molecule, how does the “stoichiometry N” value [6] read?
**A.** The value was 1 ClpA hexamers per ClpP tetradecamer and 2 ClpA hexamers per ClpP tetradecamer.

**Q.** And the “stoichiometry N” value [7]?
**A.** Its value is 6 subunits.

B3: ClpA-Δ15 (linker deletion mutant, residues 145 to 159 deleted) (enzyme, E. coli, UniProt P0ABH9 1-758, looked up)
chain: MLNQELELSLNMAFARAREHRHEFMTVEHLLLALLSNPSAREALEACSVDLVALRQELEAFIEQTTPVLPASEEERDTQPTLSFQRVLQRAVFHVQSSGRNEVTGANVLVAIFSEQESQAAYLLRKHEVSRLDVVNFISHGTRKEEQAGGEERMENFTTNLNQLARVGGIDPLIGREKELERAIQVLCRRRKNNPLLVGESGVGKTAIAEGLAWRIVQGDVPEVMADCTIYSLDIGSLLAGTKYRGDFEKRFKALLKQLEQDTNSILFIDEIHTIIGAGAASGGQVDAANLIKPLLSSGKIRVIGSTTYQEFSNIFEKDRALARRFQKIDITEPSIEETVQIINGLKPKYEAHHDVRYTAKAVRAAVELAVKYINDRHLPDKAIDVIDEAGARARLMPVSKRKKTVNVADIESVVARIARIPEKSVSQSDRDTLKNLGDRLKMLVFGQDKAIEALTEAIKMARAGLGHEHKPVGSFLFAGPTGVGKTEVTVQLSKALGIELLRFDMSEYMERHTVSRLIGAPPGYVGFDQGGLLTDAVIKHPHAVLLLDEIEKAHPDVFNILLQVMDNGTLTDNNGRKADFRNVVLVMTTNAGVRETERKSIGLIHQDNSTDAMEEIKKIFTPEFRNRLDNIIWFDHLSTDVIHQVVDKFIVELQVQLDQKGVSLEVSQEARNWLAEKGYDRAMGARPMARVIQDNLKKPLANELLFGSLVDGGQVTVALDKEKNELTYGFQSAQKHKAEAAH
**Q.** Which results are given for B3?
**A.** stoichiometry N [6]: 1 ClpA hexamers per ClpP tetradecamer and 2 ClpA hexamers per ClpP tetradecamer; stoichiometry N [7]: 6 subunits
